Measured values: the supplement of paper PMC12636428

Tested on: Saccharomyces cerevisiae
Test: transcriptional activation domain activity (GFP:mCherry ratio, weighted mean of sorted bins, harmonized to initial dataset scale) (arbitrary fluorescence ratio units); higher = stronger transcriptional activation
Conditions: beta-estradiol 1 µM; induction time 4 h
Summary of the method: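 In diploid yeast carrying a GFP reporter, barcoded protein tiles fused to an estradiol-inducible synthetic transcription factor were integrated at the URA3 locus. Cultures diluted 1:5 into SC with 1 uM beta-estradiol were kept at 30 °C for 4 hours, then sorted by GFP:mCherry ratio into 8 bins before barcode sequencing. Tiles with under 50 reads were excluded. The activation activity reported here is the read-weighted mean of bin median fluorescence, averaged across barcodes and linearly rescaled to the initial dataset.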

Row | Sequence | transcriptional activation domain activity
1 | LVVFVFLILVVFVFLILVVFVFLILLILAFFVFLILLALLIFLILLVFLVFLV | 30600
2 | FFHVTIRCASQGCGIAFGILGFQNTNVFLAYLILGAEGYFTLVLCVFRFLISW | 73400
3 | PKPAPAAAAAPAPAAAPPAAAPAPEPKKYAPPPARPAPAPAAAPVAAAAAAAP | 9320
4 | MGSDPFGGLNLFSTALFPLYLYCLTLDPPNYSNWLIFLSQHFLFSGLFRVLCF | 56600
5 | MSTSSIVMCSLFLIVRTSTFLLTFIFPNSLPLMGYRLRVFFVWYVDFYGWIFT | 57600
6 | TLMVLCENSYTTISRFILLDSMLLFFTFTTMLCFARFHNLQSRSFSFQWWLWI | 51800
7 | ISLCLLHCVIMVFGLGLQLLVPSIYTRIEHVSYESTWNFAYYCAGWFMLKVCI | 38100
8 | KAAKRGRNARRKRKDKPKGQDHEDEKSKINDDELEYASPSNATVTNGPQTSPD | 14300
9 | APRARPAPAQRVGPRARAAEQLHRADGQHRERARRQHGRRHPPAAGAAPAVRL | 52800
10 | WYTTISSTGLLSLLLYSLPFQPARLWVLGGILYIFSLVSFCALLLVHLVRFLV | 47500
11 | DSRRKRNTSSEEDEPKKTDREERRREYRSRDHNVADEERSNKHRSSRRKHRSA | 7300
12 | IMMFPMFIALSILYAMVYLGVLFSFFSVLFFFSVVYFLEPGGLCILDVFFYYY | 68000
13 | IYTNRFVSGDDGSNSKTKNLDSNMFSNDFNFENQFDEQVSEFCSKMNQVCGTR | 74400
14 | MYNTVLAWYCFIFAHVYSFLHCCFYYWFFLAFWLFGLLTYLSFVVGGVFFMPR | 53300
15 | MHDAISFVLHLRLFAHVVGTSLSDGGPVFLALCMLPPLMRHFVSMSSNLWTTA | 70700
16 | MSSTKRPAEEEEPVIHEEDEPGKPDSAAAPAPKRRGRPPGSKNKKTIAAEAAA | 32700
17 | NLCELIYLDRLCGCCLFSMRSVVFIDLLSTLIQPVTVVYIVYLIYLVAANGAT | 28000
18 | MTNLFSASFLSSSSSLSFFFSLFFLLFQRYLLEERPLTIMAFYLLPFFFSLSL | 29800
19 | SLADEKERGLLTGDDNRDEYLGRNLRGMIHEFRWQTLVLLKCCLLQPKMLFFS | 58100
20 | MCQWWQIVLIRWMNLQILKYWAVEVKPLMMMWRRLIVIIIVILYRNFFFFFLM | 30900
21 | LFGCVVSNVNGSSYLGLVYVIFMLYEGGLLLAMIKWRISTWIIYYICAFCLSL | 59600

Row | Sequence | transcriptional activation domain activity
22 | RHYCYIIVLKSLMYESPRIIGFAWKPEEGHFFNKVMYRTFVGLLMLLQVLLVG | 55900
23 | ASTAGPAAGGSVSAAPKRRGRPPKRKAEPEQGAEAQPAKKPRGRPRKSAVVEA | 12000
24 | KHLAEAGLGIAAAGAAKELYDHRKHHRSSSVSSSGGEHNHNGRHIAAAALGAT | 28000
25 | MFAHFFFLRACCCPLPFFFCGYVFLIFSSPFSCFCFLCFWFCCFFFSVCFLLF | 58700
26 | RPEEAPSTDEEESRGECWSEGKLCLENYMRLNDLEPENSDPEQLAHVKELLEK | 47500
27 | MSLGELAVLWVKRARHLGQSLLRVVLVSYAVDLPANCVALLRTGIRVLMLNMI | 37300
28 | NRTLSTKDLIVLRLCSSFFAYFIISLFYCLMNLAFQIVVDRKFGQAGFIVFWM | 62100
29 | ATVNLVINFTEMTNLMRALLILYRLKERVLSMAKRLELAELRKSKSINVNLTL | 60400
30 | MGWGGASGFSPVVGIFFFTGPLLLFLSTVFLWIQAQFFPMMVCGLFCVFWLSF | 60500
31 | YIPEHLRSYVLVAHLLEMCNLHTVFLPQLLDPLIVLCLQHRLTIQAFAFIKTR | 77300
32 | GKPVIKISSFAPKLTVISSKQRPRRLSIKGSDGKDYQFLLKGHEDLRQDERVM | 58400
33 | HLLIKILATRFFLEAKKTTYAPLNDQGTLMPSVEWTIMAQLWRLARNKWFEAT | 51000
34 | VHLTLNLGTYLRVISIGKPFPMWLDYWYNYGYILYCAILQLYELWQIVILIWL | 60100
35 | PFLPSSLPPFLPSSLPPFLPSSLPPFLPSSLPPSLLFSFLFSFPLPSPPSLPL | 64000
36 | MLYINHFLHSPRGLVEQAKSLFFLYLSFFFLFFFFPFISFHFSFNVPFSLNCI | 50900
37 | HTQENEKVMWNIGSWNAPSLTNSWDSPPGNRTGAVTIGDESINGSEMPDFSLD | 36100
38 | QTTLRAVVSSKEAGVIIGKGGKNVADLRDETGVKAGVSKVVQGVHDRVLTITG | 51200
39 | YKEWDELVKYFFRQVTKRVQERPELVVEMLFSKIPATIFFLDHGYDRELPSRA | 46400
40 | QLQCIPIFGNFVVLILCLKYIYSCNHFGSVTSHHTFHMLAVVLSTFFISLIPV | 43100
41 | LFLFIFLVAESYLGFSCWVLYSNVPLYAHVADLAGTKKPFVLPVPFMNVINGG | 48000
42 | RCQAVTVSDEVYSKLRCSSGHSGSGLLFMLIWIRIWKTLVIAYSGFSWREYLY | 88100

Row | Sequence | transcriptional activation domain activity
43 | VWEAVTTGFDGGFVPRTRDADAGTRRTGGSVRAEERKEKLRAWRVSRCWAVLA | 56500
44 | VPYQKYLYYPLLCFGRFNLYVLSLEFILRDKGPKSNRWHRFYELSGQVFFWFW | 71200
45 | TPGGSSGGTGAAVASSFSVFGTGTDTVNSLRSPASANSLFSCRPTRGLITRNG | 58000
46 | SSSSKKQNQSADGERKKPKKTDGAEKGESVRRKSDSGGKSVKSEEKTTKGIQK | 28800
47 | VSMMQRILNIVCILPSLLERYDTLVALSETSNLGEVERLWIDCHAFLTNLRIW | 62400
48 | ADANGGGLKAGGRVTIAIVRQAILEATSSPLQVYLKTCPLASKVFLVALLVRC | 58100
49 | IDDFEQFRTEYTIDLSDFQNTERLKFLEEYYWKTLNFTTPMYGADTPGSIFPE | 93300
50 | FFTPPSTTYLRFFLSFYPLSPFIFFFIFLSFSLPLSSFLSFSISFFFTFPFPF | 36100
51 | ARGGEKKRREPGRGKRRTGGEERGGRRKTRRANAGETGGERRPRGATPGRKPA | 38500
52 | EDRHSSKRRRERSRSPVRDTRRRSRSPAARGKNDEDRRDRRRSSSRERDRRRG | 32600
53 | VWIVIYISLSYLFSGVLESVILIYSWIRGFPVIQLLFPKCQVYMNGFLVLFVI | 61200
54 | EEEEQAKTSPAKSESKKEKKDKKKKRSADEIESGPEGTPKVAKKIKADSGAAV | 42700
55 | MGGGCLYIILFLLRTTLGVMWVFFCLLFYLFLFWFSKSLIFFSLFLVLIPSYF | 36500
56 | GKPRGYAFVEYEREKDMKAAYKEGDGMKITGRRVVVDVERGRTVKGWKPRRLG | 36700
57 | ERPREKKEHSRRHRDDEEKGRRRRHRSRSRSRDRRERRRERSRSRERRRGGDE | 13000
58 | LLLPELFFFHLYWALIAFRFIPLLTLLRGMGYCLFFSLLFFFLFFSLFSVLFT | 53000
59 | MTSPPPPSITVSHLALVPFFRTPVSAYSLLFLLFFRLGLCLSCWLFLLFSFLF | 65800
60 | KDESSSSRRRRGGRSEKEKRERTGDEGDSSSRHRSGRDREGDEEADDDERGSS | 37500
61 | LHSFRRQNGFIRLNIWDLNPSPKILQLYLLTQTIKRYIVLCLLLNLGFTIAQC | 60700
62 | EQFVLRDCGLLLWIDLRFLCHCARICLSACLDNYVYGVANITGKLVRFWGLGV | 63400
63 | MGDIKKISCIFFSFIFGLVLFFFVIIITIICILWIWAWDFWACFGSGLGLLVC | 47100

Row | Sequence | transcriptional activation domain activity
64 | LFPFLFFFFFFLFFSFFLSFFPSSCFLLFSPFFSLVFPFFSLVFFSSFLFFSF | 26800
65 | PVVDLNSCFSNGFNNEKQEIEMETDDSPILLMSSSASRENSNTFSVIQRTPDG | 52900
66 | FTSPLPFALVPLFMYGDAQNWCWFTKQNTLYGIYLWFMWLWILFAFNLVCLFF | 56600
67 | LSADYLCQYSGSLIGKHFKSLAQVMPFIIYDLVPKTVLNAWNVIGNLVVMLWH | 46100
68 | VFRLCLGDLFRPYGISLNVIRLMLMATGTDLDFYVPRSKWRQVLLFLRLASGY | 72200
69 | SGDADEDGNGHGTHCSGTVAGKKYGVAKKASVYAVKVLRSNGSGSMSDVVKGV | 45000
70 | TACVAIINIKCLFLEMHVWSVLNYAFFFISYGGWWVWTIAQSLIFGHQSIYFV | 34700
71 | MLFPFRVSAISPDVICFIPLCFSFCYHFAIRVRGILPSRVRALMMYVWFVWYF | 51900
72 | NLMVIVLFVGNLRLVIENIQKYGVLICIRCHDVRESDLILGLSLYFLIPCHLL | 67300
73 | TTWLAHSKKKNCDVCKHPYSFTKVYATDMPTRLPPVLLLRRIAQQSFFAMVFA | 44800
74 | MSETNAPAASAPDALAEGIAKLDVGAEGAQASEAAAPQANGAGEAAPAAAEAS | 23400
75 | LYYMECSFFRLIIRWIPHWLFLSVKADHVILPLPNHPVGAIIGPNLFCIFLHI | 50900
76 | FWFPNYLFEALTFFSWMTWISPNNLNLEILTGFRNGLGMFNPWPTFDWNVLLF | 51500
77 | HWDGVCRLFFFIYYIYFYFSMRACLLVLILCFESIVFGLVSFLVYLFSPFFFR | 40900
78 | LLYLPAVLEIYQDVHRSDLSSTVSWETFVAKIFEWMELQYVWPIAGKLLVTIF | 74800
79 | VLHESCGSPVFLLFSCFILLSLWRIVGRISLSILLVLRSLFCCYFPSLLFWLW | 36900
80 | IINHLIILYLNRHICVMGLLHVPTFLEYYNSLDDPLNDAMVLAVCIDALVNLR | 42700
81 | PWTFDLGLFGLGLFGLFGLFGLFGLFGLGPFGLGLFGPLDFLALDFLDLWTFW | 18400
82 | LWQYMEFRIMIYLFLALCFIPISIFVIFCSCLSSILFMISAGIWIFFGTIAFL | 51200
83 | IALCEAVYIWLAKQLYQEFGWKIYKKIGADLIKRRMYRDYHICLMLLKLDLFF | 64200
